Positions of bridges follow the written chain, without caps; N, C: chain ends.

The target in this experiment is human c-Met receptor (human, UniProt P08581 25-1390). Description: cell-based or functional assay.
human c-Met receptor, sequence (P08581 25-1390): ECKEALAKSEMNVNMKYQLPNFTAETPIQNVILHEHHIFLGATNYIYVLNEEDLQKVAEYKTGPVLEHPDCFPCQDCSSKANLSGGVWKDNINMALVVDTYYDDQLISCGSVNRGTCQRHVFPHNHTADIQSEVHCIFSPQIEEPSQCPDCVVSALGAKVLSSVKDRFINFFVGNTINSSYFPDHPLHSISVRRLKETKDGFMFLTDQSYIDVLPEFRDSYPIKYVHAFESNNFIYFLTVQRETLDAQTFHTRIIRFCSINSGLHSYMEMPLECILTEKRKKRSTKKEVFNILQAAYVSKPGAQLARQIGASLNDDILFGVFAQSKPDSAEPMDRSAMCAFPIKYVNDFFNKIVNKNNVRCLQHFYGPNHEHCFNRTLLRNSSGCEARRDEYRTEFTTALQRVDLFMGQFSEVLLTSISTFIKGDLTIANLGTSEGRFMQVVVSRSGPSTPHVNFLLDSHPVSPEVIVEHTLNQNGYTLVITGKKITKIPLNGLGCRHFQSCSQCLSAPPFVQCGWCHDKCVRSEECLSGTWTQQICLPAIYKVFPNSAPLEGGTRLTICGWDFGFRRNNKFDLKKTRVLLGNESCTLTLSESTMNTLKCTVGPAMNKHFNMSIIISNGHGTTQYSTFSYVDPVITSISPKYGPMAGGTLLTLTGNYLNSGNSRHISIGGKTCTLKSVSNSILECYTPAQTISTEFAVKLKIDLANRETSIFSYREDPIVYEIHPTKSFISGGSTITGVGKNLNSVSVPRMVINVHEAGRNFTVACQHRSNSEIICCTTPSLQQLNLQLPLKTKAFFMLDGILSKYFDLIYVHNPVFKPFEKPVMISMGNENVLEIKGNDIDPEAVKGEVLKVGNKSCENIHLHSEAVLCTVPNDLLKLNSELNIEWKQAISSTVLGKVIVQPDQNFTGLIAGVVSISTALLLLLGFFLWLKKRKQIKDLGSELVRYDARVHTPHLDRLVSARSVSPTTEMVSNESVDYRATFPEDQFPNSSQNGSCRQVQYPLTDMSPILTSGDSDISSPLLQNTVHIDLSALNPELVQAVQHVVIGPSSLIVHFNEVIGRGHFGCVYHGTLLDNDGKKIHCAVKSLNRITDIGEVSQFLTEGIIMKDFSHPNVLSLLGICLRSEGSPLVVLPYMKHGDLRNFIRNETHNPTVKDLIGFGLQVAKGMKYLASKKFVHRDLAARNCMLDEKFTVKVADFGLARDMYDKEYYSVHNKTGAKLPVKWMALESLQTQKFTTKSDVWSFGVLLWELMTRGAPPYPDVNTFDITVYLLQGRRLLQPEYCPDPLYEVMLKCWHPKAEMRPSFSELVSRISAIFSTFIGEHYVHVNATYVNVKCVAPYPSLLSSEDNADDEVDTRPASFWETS

Consider Ac-AGSCYCSGPPRFECWCYETEGTGGGK(N‑(4-fluorobenzylidene)aminooxyacetyl)-NH2 (disulfide 6-14, 4-16) [Compound 3A], for which the “HT-29 tumour uptake of Compound 3B with 1000-fold excess unlabelled peptide” value is 1.1 % id/g and the “reduction in HT-29 tumour uptake of Compound 3B with 1000-fold excess unlabelled peptide” value was determined as 40%.

Source of the values: US9533059 (GE HEALTHCARE, dated 2017).
